First the molecules themselves.
B1: Outer mitochondrial transmembrane helix translocase (Saccharomyces cerevisiae), P28737 (parent)
chain: MSRKFDLKTITDLSVLVGTGISLYYLVSRLLNDVESGPLSGKSRESKAKQSLQWEKLVKRSPALAEVTLDAYERTILSSIVTPDEINITFQDIGGLDPLISDLHESVIYPLMMPEVYSNSPLLQAPSGVLLYGPPGCGKTMLAKALAKESGANFISIRMSSIMDKWYGESNKIVDAMFSLANKLQPCIIFIDEIDSFLRERSSTDHEVTATLKAEFMTLWDGLLNNGRVMIIGATNRINDIDDAFLRRLPKRFLVSLPGSDQRYKILSVLLKDTKLDEDEFDLQLIADNTKGFSGSDLKELCREAALDAAKEYIKQKRQLIDSGTIDVNDTSSLKIRPLKTKDFTKKLRMDATSTLSSQPLD
partner: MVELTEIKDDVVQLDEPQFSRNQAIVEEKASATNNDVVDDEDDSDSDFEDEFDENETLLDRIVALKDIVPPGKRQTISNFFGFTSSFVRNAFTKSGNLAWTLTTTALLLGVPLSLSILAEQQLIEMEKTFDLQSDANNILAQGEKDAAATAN
B2: Outer mitochondrial transmembrane helix translocase (Saccharomyces cerevisiae), P28737 (parent)
chain: B1 chain
partner: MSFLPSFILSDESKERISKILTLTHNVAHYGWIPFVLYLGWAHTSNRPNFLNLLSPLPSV

One test covers variants of B1. The following applies: with tom22_yeast TOM22, P49334.
Take MSRKFDLKTITDLSVLVGTGISLYYLVSRLLNDVESGPLSGKSRESKAKQSLQWEKLVKRSPALAEVTLDAYERTILSSIVTPDEINITFQDIGGLDPLISDLHESVIYPLMMPEVYSNSPLLQAPSGVLLYGPPGCGKTMLAKALAKESGANFISIRMSSIMDKWYGESNKIVDAMFSLANKLQPCIIFIDQIDSFLRERSSTDHEVTATLKAEFMTLWDGLLNNGRVMIIGATNRINDIDDAFLRRLPKRFLVSLPGSDQRYKILSVLLKDTKLDEDEFDLQLIADNTKGFSGSDLKELCREAALDAAKEYIKQKRQLIDSGTIDVNDTSSLKIRPLKTKDFTKKLRMDATSTLSSQPLD [E193Q]: the “effect of a mutation on the interaction” value is reported as “increasing interaction”.

In another test the parent is B2. The conditions noted are these: with tom7_yeast TOM7, P53507.
As for MSRKFDLKTITDLSVLVGTGISLYYLVSRLLNDVESGPLSGKSRESKAKQSLQWEKLVKRSPALAEVTLDAYERTILSSIVTPDEINITFQDIGGLDPLISDLHESVIYPLMMPEVYSNSPLLQAPSGVLLYGPPGCGKTMLAKALAKESGANFISIRMSSIMDKWYGESNKIVDAMFSLANKLQPCIIFIDQIDSFLRERSSTDHEVTATLKAEFMTLWDGLLNNGRVMIIGATNRINDIDDAFLRRLPKRFLVSLPGSDQRYKILSVLLKDTKLDEDEFDLQLIADNTKGFSGSDLKELCREAALDAAKEYIKQKRQLIDSGTIDVNDTSSLKIRPLKTKDFTKKLRMDATSTLSSQPLD [E193Q], the “effect of a mutation on the interaction” value is on record as “increasing interaction”.

The values above are taken from IntAct's records for PubMed 24843043.
